Experimental data as given in patent US20260234247A1 (published 2026).
Each block holds one binder with its values, some of them ahead of it.

Assays:
human LILRA1 [1] = biological target: T1, human LILRA1 (human, UniProt O75019 17-461, limits assumed); test: ELISA, OD450, antibody at 200 nM; + = 2-fold over ISO
T1 construct: bought protein coated for ELISA; also called hLILRA1
T1 sequence (O75019 17-461 limits assumed): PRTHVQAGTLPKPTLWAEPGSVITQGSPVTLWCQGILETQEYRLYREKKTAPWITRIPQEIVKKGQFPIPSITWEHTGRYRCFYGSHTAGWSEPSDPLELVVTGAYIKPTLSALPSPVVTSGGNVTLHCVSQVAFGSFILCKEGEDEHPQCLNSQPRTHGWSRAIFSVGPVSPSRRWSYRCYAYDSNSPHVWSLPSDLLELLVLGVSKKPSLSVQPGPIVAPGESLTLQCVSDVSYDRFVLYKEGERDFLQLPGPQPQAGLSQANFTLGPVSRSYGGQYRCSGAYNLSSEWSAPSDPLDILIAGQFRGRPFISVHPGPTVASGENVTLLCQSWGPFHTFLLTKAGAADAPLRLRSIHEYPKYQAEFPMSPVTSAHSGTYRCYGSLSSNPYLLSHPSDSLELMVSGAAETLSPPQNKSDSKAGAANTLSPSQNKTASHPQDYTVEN
Method: (§1) To further confirm binding affinity, selected clones were assayed in ELISA or FACS in a range of testing concentrations.

human LILRA1 [2] = biological target: T2, human LILRA1 (human, UniProt O75019 17-461, limits assumed); test: ELISA, antibody at 200 nM, OD450; + = 2-fold over ISO
T2 construct: Bought protein; also called hLILRA1
T2 sequence (O75019 17-461 limits assumed): as above
Method: as §1

Biotinylated LILRB2 [3] = biological target: T3, Biotinylated LILRB2 (UniProt Q8N423 22-460, limits assumed, biotinylated (sites not given)); test: epitope binning ELISA; coated antibody 1 ug/ml, biotinylated LILRB2; competitor LK-RB2-3 at 20 ug/ml
T3 construct: also called biotinylated-LILRB2 protein

Biotinylated LILRB2 [4] = biological target: T3, Biotinylated LILRB2; test: epitope binning ELISA; coated antibody 1 ug/ml, biotinylated LILRB2; competitor LK-RB2-15 at 20 ug/ml
Method: (§2) Binding epitope of a subset of anti-LILRB1 and anti-LILRB2 antibodies was analyzed by epitope binning ELISA. Briefly, a panel of testing antibodies were coated onto ELISA plate. 50 ul/well Biotinylated LILRB1 or LILRB2 and 50 ul/well of competing antibodies were added to the coated plate and incubated at 37° C. for 1 hour. After Streptavidin-HRP (1:5000) incubation and TMB development, the plates were read at 450 nm using Molecular device spectra max plus384.

Biotinylated LILRB2 [5] = biological target: T3, Biotinylated LILRB2; test: epitope binning ELISA; coated antibody 1 ug/ml, biotinylated LILRB2; competitor LK-RB2-14 at 20 ug/ml
Method: as §2

Biotinylated LILRB2 [6] = biological target: T3, Biotinylated LILRB2; test: epitope binning ELISA; coated antibody 1 ug/ml, biotinylated LILRB2; competitor hz73D1.v1 at 20 ug/ml
Method: as §2

Biotinylated LILRB2 [7] = biological target: T3, Biotinylated LILRB2; test: epitope binning ELISA; coated antibody 1 ug/ml, biotinylated LILRB2; competitor LK-RB2-2 at 20 ug/ml
Method: as §2

human LILRB1-his = biological target: T4, human LILRB1-his (human, UniProt Q8NHL6 24-458, limits assumed); test: SPR (Biacore 8K), antibody captured via Fc, LILRB1-his as analyte, 1:1 model
T4 construct: Analyte of the Biacore run; not shown: His tag

Biotinylated LILRB2 [8] = biological target: T3, Biotinylated LILRB2; test: epitope binning ELISA; coated antibody 1 ug/ml, biotinylated LILRB2; competitor J19.h1 at 20 ug/ml
Method: as §2

human LILRB2-his = biological target: T5, human LILRB2-his (human, UniProt Q8N423 22-460, limits assumed); test: SPR (Biacore 8K), antibody captured via Fc, LILRB2-his as analyte, 1:1 model
T5 construct: Analyte of the Biacore run; not shown: His tag

Biotinylated LILRB2 [9] = biological target: T3, Biotinylated LILRB2; test: epitope binning ELISA; coated antibody 1 ug/ml, biotinylated LILRB2; competitor LK-RB2-24 at 20 ug/ml
Method: as §2

[10] = biological target: T6, Cynomolgus LILRB2 on CHOK1 cells (cynomolgus); test: flow cytometry on CHOK1-cyno LILRB2 cells
T6 construct: whole, on cells; also called CHOK1-Cyno LILRB2
From the text: Anti-LILRB1 and anti-LILRB2 antibodies were also screened for their ability to bind rhesus macaque LILRB1 (Kactusbio, LLC: LIL-CM1B1 and LIL-CM1B3), cynomolgus LILRB1 (Kactusbio, LLC: LIL-CM1B2) and cynomolgus LILRB2 (Kactusbio, LLC: LIL-CM1B5) by ELISA and flow cytometry.

[11] = biological target: T7, Rhesus LILRB1 (F7H3G7) on CHOK1 cells (rhesus macaque); test: flow cytometry on CHOK1-rhesus LILRB1 (F7H3G7) cells
T7 construct: whole, on cells; also called CHOK1-Rhesus LILRB1 (F7H3G7)

human LILRA2 = biological target: T8, human LILRA2 (human, UniProt Q8N149 24-449); test: ELISA, OD450, antibody at 200 nM; + = 2-fold over ISO
T8 construct: bought protein coated for ELISA; also called hLILRA2
Method: as §1

human LILRA3 = biological target: T9, human LILRA3 (human, UniProt Q8N6C8 24-439); test: as above
T9 construct: bought protein coated for ELISA; also called hLILRA3
T9 sequence (Q8N6C8 24-439 limits assumed): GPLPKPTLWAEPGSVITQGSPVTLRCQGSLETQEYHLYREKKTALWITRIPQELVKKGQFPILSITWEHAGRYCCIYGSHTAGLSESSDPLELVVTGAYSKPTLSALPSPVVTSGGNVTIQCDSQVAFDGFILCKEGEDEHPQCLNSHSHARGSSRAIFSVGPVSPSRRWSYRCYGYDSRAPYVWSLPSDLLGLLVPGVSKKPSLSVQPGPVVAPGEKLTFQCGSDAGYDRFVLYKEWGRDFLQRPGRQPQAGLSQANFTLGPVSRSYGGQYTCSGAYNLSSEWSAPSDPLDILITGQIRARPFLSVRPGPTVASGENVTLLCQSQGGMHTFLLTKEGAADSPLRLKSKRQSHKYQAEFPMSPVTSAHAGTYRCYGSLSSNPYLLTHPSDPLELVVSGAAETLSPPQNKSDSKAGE
Method: as §1

T4 sequence (Q8NHL6 24-458 limits assumed): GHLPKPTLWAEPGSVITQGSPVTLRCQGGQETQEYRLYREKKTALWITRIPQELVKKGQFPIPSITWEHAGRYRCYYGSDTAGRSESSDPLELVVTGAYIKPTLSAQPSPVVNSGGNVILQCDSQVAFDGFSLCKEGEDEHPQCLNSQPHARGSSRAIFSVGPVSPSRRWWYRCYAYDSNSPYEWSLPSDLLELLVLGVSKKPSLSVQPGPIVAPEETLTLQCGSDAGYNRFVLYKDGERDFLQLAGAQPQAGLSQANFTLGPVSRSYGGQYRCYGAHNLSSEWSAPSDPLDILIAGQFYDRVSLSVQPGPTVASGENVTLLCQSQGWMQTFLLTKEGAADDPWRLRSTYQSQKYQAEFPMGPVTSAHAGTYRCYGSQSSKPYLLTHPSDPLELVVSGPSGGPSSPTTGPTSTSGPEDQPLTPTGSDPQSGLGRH
T3 sequence (Q8N423 22-460 limits assumed): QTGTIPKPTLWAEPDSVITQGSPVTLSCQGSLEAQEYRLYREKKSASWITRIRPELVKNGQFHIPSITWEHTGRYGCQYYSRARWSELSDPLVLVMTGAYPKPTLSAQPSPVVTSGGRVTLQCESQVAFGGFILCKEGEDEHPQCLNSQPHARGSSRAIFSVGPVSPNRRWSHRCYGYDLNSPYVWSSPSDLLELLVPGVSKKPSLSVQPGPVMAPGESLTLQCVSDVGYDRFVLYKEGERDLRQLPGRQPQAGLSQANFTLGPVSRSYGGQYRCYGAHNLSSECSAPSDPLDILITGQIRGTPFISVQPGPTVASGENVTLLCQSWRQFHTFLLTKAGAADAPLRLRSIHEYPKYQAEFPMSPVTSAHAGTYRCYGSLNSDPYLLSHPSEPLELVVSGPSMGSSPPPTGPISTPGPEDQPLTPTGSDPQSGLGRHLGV
T5 sequence (Q8N423 22-460 limits assumed): as above
T8 sequence (Q8N149 24-449 limits assumed): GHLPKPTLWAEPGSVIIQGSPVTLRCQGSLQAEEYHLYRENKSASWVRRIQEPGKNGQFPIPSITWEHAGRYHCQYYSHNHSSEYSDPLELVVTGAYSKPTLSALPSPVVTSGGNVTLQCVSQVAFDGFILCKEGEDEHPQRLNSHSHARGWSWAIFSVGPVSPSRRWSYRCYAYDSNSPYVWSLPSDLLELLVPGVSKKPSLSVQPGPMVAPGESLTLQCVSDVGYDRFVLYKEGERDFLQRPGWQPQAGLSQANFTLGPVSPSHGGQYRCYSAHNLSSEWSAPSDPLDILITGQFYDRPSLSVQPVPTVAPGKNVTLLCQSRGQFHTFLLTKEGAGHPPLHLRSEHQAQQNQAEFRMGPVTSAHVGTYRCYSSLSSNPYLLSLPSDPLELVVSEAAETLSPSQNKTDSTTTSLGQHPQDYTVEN

B1: LK-RB1-48 (antibody, human IgG4 S228P, kappa, V domains shown)
VH: EVKLVESGGGLVQPGGSLKLSCAASGFTFSDYYMYWVRQTPEKRLEWVAYISNGGGISFYPDTVKGRFTISRDNAKNTLYLQMSRLKSEDTAIYYCASATKEVGAMDYWGQGTSVTVSS
VL: DIVMTQSQKFLSTTVGDRVSITCKASQNVGTAVAWYQQKPGQSPKILIYSASNRYTGVPDRFTGSGSGTDFTLTISNMQSEDLADYFCQQYSSYRTFGGGTKLEIKR
notes: anti-LILRB1 clone from mouse hybridoma
binding result (human LILRA1 [1]): binds

B5: LK-RB1-5 (antibody, human IgG4 S228P, kappa, V domains shown)
VH: QVQLQQPGAELVKPGASVKLSCKASGYTFTDFWIHWVKQRPGQGLEWIGMIHPNSGSTNFNEKFRAKATLTVDKSSSTAYMRLSSLTSEDSAVYYCARSGDGYSNPMDYWGQGTSVTVSS
VL: QIVLSQSPAILSASPGEKVTLTCRASSSVSYMHWYQQKPGSSPKPWIYATSNLASGVPVRFSGSGSGTSYSLTISRMQTEDAATYYCQQWRRSPYTFGGGTKLEIKR
notes: Anti-LILRB1 antibody
EC50 [10]: 1.16 nM | EC50 [11]: 1.51 nM

B6: LK-RB2-2 (antibody, human IgG4 S228P, kappa, V domains shown)
VH: DVKLEESGEGLVKPGGSLKLSCAASGFTFSSYAMSWVRQTPEKRLEWVAYISSGGDYFHYADTVKGRFTISRDNARNTLYLQMSSLKSEDTAMYYCTREGAHYDSSYLAWFAHWGQGTLVTVSA
VL: DIQMTQSPASLSVSVGETVTITCRASENIYSNLAWYQQRQGKSPQLLVYAATNLADGVPSRFSGSGSGTQYSLKINSLQSEDFGSYYCQQFWDNPLTFGAGTKLELKR
notes: Anti-LILRB2 antibody from mouse hybridoma; parental antibody of LK-RB2-2.h1 to h3
Inhibition % (Biotinylated LILRB2 [3]): 93.9% | Inhibition % (Biotinylated LILRB2 [4]): 13.6% | Inhibition % (Biotinylated LILRB2 [5]): 89.4% | Inhibition % (Biotinylated LILRB2 [6]): 92.8% | Inhibition % (Biotinylated LILRB2 [7]): 97.8% | Inhibition % (Biotinylated LILRB2 [8]): 69.6% | Kd (human LILRB2-his): 0.168 nM | koff (human LILRB2-his): 0.000134 s⁻¹ | kon (human LILRB2-his): 800000 M⁻¹ s⁻¹ | Inhibition % (Biotinylated LILRB2 [9]): 17.7%

B10: J19.h1 (antibody, human IgG4 S228P, kappa, V domains shown)
VH: QITLKESGPTLVKPTQTLTLTCTFSGFSLNTYAMGVSWIRQPPGKALEWLASIWWNGNKYNNPSLKSRLTVTKDTSKNQVVLTMTNMDPVDTATYYCAHSRIIRFTDYVMDAWGQGTLVTVSS
VL: DIQMTQSPSSLSTSVGDRVTITCRASEDIYNDLAWYQQKPGKAPKLLIYNANSLHTGVASRFSGSGSGTDFTFTISSLQPEDVATYFCQQYYDYPLTFGQGTKLEIKR
Inhibition % (Biotinylated LILRB2 [3]): 93.9% | Inhibition % (Biotinylated LILRB2 [4]): 17.5% | Inhibition % (Biotinylated LILRB2 [5]): 96.1% | Inhibition % (Biotinylated LILRB2 [6]): 95.9% | Inhibition % (Biotinylated LILRB2 [7]): 97.8% | Inhibition % (Biotinylated LILRB2 [8]): 92.5% | Inhibition % (Biotinylated LILRB2 [9]): 44.5%

B11: LK-RB1-39 (antibody, human IgG4 S228P, kappa, V domains shown)
VH: EVQLQQSGAELVRPGASVKLSCTASGFNIKDDYVHWVNQRPEQGLEWIGWIDPENGDTGYASKFQDKATITADTSSNTAYLHLSSLTSEDTAVYYCTTTRWTGSYWGQGTTLTVSS
VL: QIVLTQSPAIMSASPGEKVTITCSASSSVNYMHWFQQKPGSSPKLWIYSTANLASGVPARFSGSGSGTSYSLTISRMEAEDAATYYCQQRSSYPPTWTFGGGTKLEIKR
notes: Anti-LILRB1 antibody
EC50 [10]: 0.36 nM

B15: 15G8 (antibody, human IgG4 S228P, kappa, V domains shown)
VH: DVQLQGSGPGLVKPSETLSLTCSVTGYSITSGYYWNWIRQFPGKKLEWMGYISYDGSNNYNPSLKNRITISRDTSKNQFSLKLNSVTAADTATYYCAHGYSYYYAMDAWGQGTSVTVSS
VL: DIQMTQSPSSLSASVGDRVTITCRTSQDISNYLNWYQQKPGKAVKLLISYTSRLHSGVPSRFSGSGSGTDYTLTISSLQPEDFATYYCQQGNTLPTFGQGTKLEIKR
EC50 [10]: 2.15 nM | EC50 [11]: 760 nM

Other lines, results leading:

binding result (human LILRA1 [1]): binds
B2: LK-RB1-55 (antibody, human IgG4 S228P, kappa, V domains shown)
VH: EVKLVESGGGLVQPGGSLKLSCAASGFTFSDYYMYWVRQTPEKRLEWVAYISNGGDITFYPDTVKGRFTISRDNARSTLYLQMSRLKSEDTAIYYCASATTEVGAMDHWGQGTSVTVSS
VL: DIVMTQSQKFMSTTVGDRVSITCKASQNVGTAVAWYQQKPGKSPKLLIYAASNRYTGVPDRFTGSGSGTDFTLTISNMQSEDLADYFCQQYSSYRTFGGGTNLEIKR
notes: as for B1

binding result (human LILRA1 [2]): binds
B3: LK-RB2-24 (antibody, human IgG4 S228P, kappa, V domains shown)
VH: QIQLVQSGPEVKKPGETVKISCKASGYTFTTYGMSWVKQAPGKGLKWMGWLNIYSGVPAYADDFKGRFAFSLESSASTAYLQINNLKNEDTATYFCARRENYDGYGMDYWGQGTSVTVSS
VL: DIVMTQSPATLSVTPGDRVSLSCRASQSISDYLHWYQQKSHESPRLLIKYASQSISGIPSRFSGSGSGSDFTLSINSVEPEDVGVYYCQNGHSFPYTFGGGTKLEIKR

Inhibition % (Biotinylated LILRB2 [3]): 25.9% | Inhibition % (Biotinylated LILRB2 [4]): 95.2% | Inhibition % (Biotinylated LILRB2 [5]): 91.1% | Inhibition % (Biotinylated LILRB2 [6]): 22.1% | Inhibition % (Biotinylated LILRB2 [7]): 48.4% | Kd (human LILRB1-his): 21.1 nM | koff (human LILRB1-his): 0.00406 s⁻¹ | kon (human LILRB1-his): 192000 M⁻¹ s⁻¹ | Inhibition % (Biotinylated LILRB2 [8]): -4.04% | Kd (human LILRB2-his): 0.51 nM | koff (human LILRB2-his): 0.000484 s⁻¹ | kon (human LILRB2-his): 950000 M⁻¹ s⁻¹ | Inhibition % (Biotinylated LILRB2 [9]): 95.7%
B4: LK-RB2-24 (antibody, human IgG4 S228P, kappa, V domains shown)
VH: QIQLVQSGPEVKKPGETVKISCKASGYTFTTYGMSWVKQAPGKGLKWMGWLNIYSGVPAYADDFKGRFAFSLESSASTAYLQINNLKNEDTATYFCARRENYDGYGMDYWGQGTSVTVSS
VL: DIVMTQSPATLSVTPGDRVSLSCRASQSISDYLHWYQQKSHESPRLLIKYASQSISGIPSRFSGSGSGSDFTLSINSVEPEDVGVYYCQNGHSFPYTFGGGTKLEIKR
notes: Anti-LILRB2 antibody from mouse hybridoma; parental antibody of LK-RB2-24.h1 to h3

EC50 [10]: 19.8 nM
B7: LK-RB2-8 (antibody, human IgG4 S228P, kappa, V domains shown)
VH: QIQLVQSGPELKKPGETVKISCKASGYSFASYGMGWVKQAPGKGLKWLGWINTHSGVPTYADDFKGRFAFSLETSASTAYLQINNLKNEDTATYFCAHYGRPWFPYWGQGTLVTVSA
VL: DIQMTQSPASLSASVGETVTITCRTSENIYSYLAWYQQKQGKSPQLLVYNAKSLAEGVPSRFSGSGSGTQFSLRINSLQPEDFGTYYCQQHYETPLTFGAGTKLELKR
notes: Anti-LILRB2 antibody

EC50 [10]: 5.45 nM
B8: LK-RB2-16 (antibody, human IgG4 S228P, kappa, V domains shown)
VH: QIQLVQSGPELKKPGETVKISCKASGYTFTTYGMGWVKQAPEKGLKWMGWINTNSGAPTYGDDFKGRFAFSLETSASTAYLQINNLKNEDTATYFCAHYGRPWFAYWGQGTLVTVSA
VL: DIQMTQSPASLSASVGETVTITCRASENIYSYLAWYHQKQGESPQLLVYNAKTLAEGVPSRFSGSGSGTQFSLKINSLQPEDFGSYYCQHHYNIPLTFGAGTKLELKR
notes: Anti-LILRB2 antibody

binding result (human LILRA2): binds
B9: LK-RB1-33 (antibody, human IgG4 S228P, kappa, V domains shown)
VH: QIQLVQSGPELKKPGDTVKISCKASGYTFTSYGMNWVKQAPGEGLKWMGWINTYSGVPTYGDDFKGRFAFSLETSASTAYLQINNLENEDTATYFCARRGRDSVVGHFDVWGTGTTVTVSS
VL: DIVMTQSHKFMSTSVGDRVSITCKASQDVNTAVAWYQQKPGQSPKLLIYWASTRHTGVPDRFTGSGSGTDFTLTISSVQAEDLALYYCQQHYTIPFTFGSGTRLEIKR
notes: as for B1

EC50 [10]: 0.4 nM
B12: LK-RB2-47 (antibody, human IgG4 S228P, kappa, V domains shown)
VH: QVQLKQSGPGLVQPSQSLSITCTVSGFSLISYGVHWVRQSPGKGLEWLGVIWSGGSTDYNAAFISRLSISKDNSKSQVFFKMNSLQADDTAIYYCARSFHYHGSTFDYWGQGTTLTVSS
VL: DIQMTQTTSSLSASLGDRVIISCRASQDINNYLNWYQQKPDGTVKLLIYFTSRLHSGVPSSFSGSGSGTDYSLTINNLEQEDIATYFCQQVNTLPYTFGGGTKLEIKR
notes: Anti-LILRB2 antibody

binding result (human LILRA3): binds
B13: LK-RB1-3 (antibody, human IgG4 S228P, kappa, V domains shown)
VH: QVQLQQPGAELVKPGTSVNLSCKASGYTFTSYWIHWVKQRPGRGLEWIGRINPYSSGTRYNEKFKNKATLTVDKPSSTAYMQLTSLTSEDSAVYYCARFDGAPDYFDFWGQGTTLTVSS
VL: DIVMTQSQKFMPTSVGDRVNVTCKASQNVGINVAWYQQKLGQSPKALIYSASYRYSGVPDRFTGSGSGTDFTLTINSVQSEDLADYFCQQYNNYPFTFGSGTKLEIKR
notes: anti-LILRB1 antibody

binding result (human LILRA3): binds
B14: LK-RB1-4 (antibody, human IgG4 S228P, kappa, V domains shown)
VH: QVQLQQPGAELVKPGASVKLPCKTSGYTFTSYWMHWVKQRPGRGLEWIGRIDPHYSGTKYNEKFKNKATMTVDTPSSTAYMQLSSLTSEDSAVYYCARFDGDPYYFDYWGPGTTLTVSS
VL: DIVMTQSQKFMSTSVGDRVSVTCKASQNVGTNVAWYKQKAGQSPKAVIYSASYRYSGVPDRFTGSGSGTDFTLSISNVQSEDLAEYFCQQYNNNPFTFGSGTKLEIKR
notes: anti-LILRB1 antibody
